{"source": "patent US20040109861A1", "about": "(MYRIAD GENETICS, published 2004)", "biological_target": "T1, myc-tagged Tsg101 (residues 1-207) (human, UniProt Q99816 1-207)", "T1 construct": "range 1-207; Used as Drosophila S2 cell lysate, not purified; The tag is placed N-terminal from the name myc-Tsg101; also called myc-Tsg101(1-207); myc-Tsg101 (1-207)", "T1 sequence": "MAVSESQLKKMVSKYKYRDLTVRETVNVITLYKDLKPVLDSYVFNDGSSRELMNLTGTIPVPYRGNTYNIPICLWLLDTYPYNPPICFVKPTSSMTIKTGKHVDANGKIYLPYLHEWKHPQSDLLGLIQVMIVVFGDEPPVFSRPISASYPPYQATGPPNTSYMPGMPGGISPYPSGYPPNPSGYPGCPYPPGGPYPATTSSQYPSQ", "assay": "plate competition assay, competitor of coated GST-p6 for myc-Tsg101(1-207)", "data": [{"binder": "LQSRPEPTAPPEES (also called first 14 amino acid residues of HIV GAGp6)", "note": "[p6(1-14) peptide (GAGp6 peptide containing the first 14 amino acid residues)]", "values": [{"measurement": "binding result", "result": "binds"}]}]}
